Data taken from patent publication US20150337037A1 (MSM PROTEIN TECHNOLOGIES, published 2015).

Tests used:
cynomolgus monkey CCR6 [1] = target: T1, cynomolgus monkey CCR6 (cynomolgus monkey (Macaca Fascicularis)); test: flow cytometry on cells expressing the target, IgG1 titration (repeat of Table 2)
T1 construct: whole, on cells; gene derived from a total RNA library; also called CCR6 cyno; cyno CCR6

[2] = target: T2, human chemokine receptor CCR6 (human, UniProt P51684 1-374); test: as above
T2 construct: whole, on cells; gene was synthesized (codon-optimized); a C-terminal tag may be present on the expressed protein; also called CCR6 human; human CCR6
T2 sequence (looked up): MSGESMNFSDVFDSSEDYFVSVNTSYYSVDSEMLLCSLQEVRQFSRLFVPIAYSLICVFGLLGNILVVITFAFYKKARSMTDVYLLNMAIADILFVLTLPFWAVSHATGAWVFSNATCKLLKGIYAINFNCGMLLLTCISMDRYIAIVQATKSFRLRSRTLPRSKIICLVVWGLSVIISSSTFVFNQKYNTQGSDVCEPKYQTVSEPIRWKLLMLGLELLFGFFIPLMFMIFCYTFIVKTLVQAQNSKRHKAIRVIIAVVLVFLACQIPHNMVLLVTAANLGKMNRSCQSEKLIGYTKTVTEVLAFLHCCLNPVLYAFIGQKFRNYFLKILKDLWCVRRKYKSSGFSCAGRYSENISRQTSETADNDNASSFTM

mouse CCR6 = target: T3, mouse CCR6 (mouse, UniProt O54689 1-367); test: flow cytometry on CHO cells expressing mouse CCR6
T3 construct: whole, on cells; gene derived from a cDNA library; also called CCR6 mouse
T3 sequence (looked up): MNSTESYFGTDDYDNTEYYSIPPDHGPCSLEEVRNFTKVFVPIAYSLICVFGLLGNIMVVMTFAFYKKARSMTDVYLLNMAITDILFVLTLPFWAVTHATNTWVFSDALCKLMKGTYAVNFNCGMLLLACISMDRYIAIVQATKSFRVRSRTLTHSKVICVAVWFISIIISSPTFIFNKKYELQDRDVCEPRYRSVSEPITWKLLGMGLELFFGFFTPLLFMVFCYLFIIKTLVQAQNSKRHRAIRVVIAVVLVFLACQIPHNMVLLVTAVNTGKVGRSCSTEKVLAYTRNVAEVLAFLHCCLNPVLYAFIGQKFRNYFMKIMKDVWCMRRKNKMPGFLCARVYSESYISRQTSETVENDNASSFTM
Experimental: Cells have been incubated with fully human anti-human CCR6 antibodies in IgG1 format. After washing out residual unbound antibodies the cells were incubated with commercial anti-human Fc antibodies conjugated to the fluorescent dye phycoerythrin (IgG-PE). In more details, the cell staining procedure was: […] cell suspension in 10 μl FACS buffer (1×PBS, 2.0% FBS, 0.2% sodium azide) was mixed with 10 μl of 200 nM the corresponding anti-CCR6 MAB and incubated on ice for 30 min. Washing step—after the incubation 150 μl of FACS buffer was added to the cell sample, the samples were mixed gently by up-down pipetting the cell suspension. Then the samples were centrifuged at 1100 rpm for 5 minutes, and supernatants were removed. Washing step was repeated ones. Then 10 μl of anti-human PE-(Fab)2 form Jackson Immuno Research Lab. #709-116-098 diluted 40 times in FACS buffer were added to the cells and the cells were re-suspended by up-down pipetting. After 20 min. incubation on ice in dark the washing step was repeated twice. The washed cells were mixed with 100 μl of FIX buffer (0.5% Paraformaldehyde solution in PBS). Fixed samples were stored in dark on ice and analyzed by FACS on Guava PCA-96 flow cytometer.

cynomolgus monkey CCR6 [3] = target: T1, cynomolgus monkey CCR6; test: flow cytometry on cells expressing the target, IgG1 titration, anti-human Fc-PE
[4] = target: T2, human chemokine receptor CCR6; test: as above

EC50 (cynomolgus monkey CCR6 [1]): 14.5 nM
EC50 [2]: 25 nM
binding result (mouse CCR6): no binding
EC50 (cynomolgus monkey CCR6 [3]): 14.5 nM
EC50 [4]: 25 nM
B1: MSM-R601 IgG1 (antibody, V domains shown)
VH: EVQLLESGGGLVQPGGSLRLSCAASGFTFSSYAMSWVRQAPGKGLEWVSAISGSGGSTYYADSVKGRFTISRDNSKNTLYLQMNSLRAEDTAMYYCARHGYSATRQGLDYWGQGTLVTVSS
VL: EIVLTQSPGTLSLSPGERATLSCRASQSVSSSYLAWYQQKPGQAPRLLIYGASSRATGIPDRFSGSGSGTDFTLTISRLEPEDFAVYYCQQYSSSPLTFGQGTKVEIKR
notes: Fully human IgG1 made in transiently transfected CHO cells; HC AA / LC AA entries are full chains
